According to patent publication US5260280A (priority 1989, dated 1993):
Values joined by “and” are separate entries in the source; they are usually repeats but may differ in a detail not shown here. Identical values can stand only once.

Assays:
cholera toxin CT = cholera toxin CT (Vibrio cholerae, UniProt P01556); assay type: cell-based
[1] = target: enterotoxin CFA/II(LT-II) (Escherichia coli, UniProt P0CK94); assay type: cell-based, E. coli
enterotoxin CFA/I(LT-1) = enterotoxin CFA/I(LT-1) (Escherichia coli, UniProt D0Z6T1); assay type: cell-based, E. coli
enterotoxin LT-I = test system: enterotoxin LT-I; set-up: species or system E. coli; details: in vivo, po
cholera toxin B-subunits = cholera toxin B-subunits (Vibrio cholerae, UniProt P01556); assay type: binding

B1: lactoferrin (protein, UniProt P24627 20-708, looked up)
Lactotransferrin: APRKNVRWCTISQPEWFKCRRWQWRMKKLGAPSITCVRRAFALECIRAIAEKKADAVTLDGGMVFEAGRDPYKLRPVAAEIYGTKESPQTHYYAVAVVKKGSNFQLDQLQGRKSCHTGLGRSAGWIIPMGILRPYLSWTESLEPLQGAVAKFFSASCVPCIDRQAYPNLCQLCKGEGENQCACSSREPYFGYSGAFKCLQDGAGDVAFVKETTVFENLPEKADRDQYELLCLNNSRAPVDAFKECHLAQVPSHAVVARSVDGKEDLIWKLLSKAQEKFGKNKSRSFQLFGSPPGQRDLLFKDSALGFLRIPSKVDSALYLGSRYLTTLKNLRETAEEVKARYTRVVWCAVGPEEQKKCQQWSQQSGQNVTCATASTTDDCIVLVLKGEADALNLDGGYIYTAGKCGLVPVLAENRKSSKHSSLDCVLRPTEGYLAVAVVKKANEGLTWNSLKDKKSCHTAVDRTAGWNIPMGLIVNQTGSCAFDEFFSQSCAPGADPKSRLCALCAGDDQGLDKCVPNSKEKYYGYTGAFRCLAEDVGDVAFVKNDTVWENTNGESTADWAKNLNREDFRLLCLDGTRKPVTEAQSCHLAVAPNHAVVSRSDRAAHVKQVLLHQQALFGKNGKNCPDKFCLFKSETKNLLFNDNTECLAKLGGRPTYEEYLGTEYVTAIANLKKCSTSPLLEACAFLTR
- neutralization of the toxicity of CT against CHO-Kl cells (morphological alteration) (cholera toxin CT): neutralized the toxicity
- neutralization of the toxicity of LT-II against CHO-Kl cells (morphological alteration) [1]: neutralized the toxicity
- neutralization of the toxicity of LT-I against CHO-Kl cells (morphological alteration) (enterotoxin CFA/I(LT-1)): neutralized the toxicity
- Rate of diarrhea (enterotoxin LT-I): 40% and 20%
- interference with the binding of the cholera toxin B-subunits to GM1 (cholera toxin B-subunits): interfered with the binding
